The text below walks through data of paper PMC4380367.

A word on the stoichiometry N: it is a count of units in the complex or per binding partner.

Experiment [1] deals with Msf 1-203 KIK66-68AIA (Neisseria meningitidis strain H44/76). As to the kind of experiment: ELISA; Msf constructs (or control protein) coated at 3 μM in carbonate buffer pH 9.6; aVn 74 nM in PBS overlaid 1 h at RT; bound aVn detected with rabbit polyclonal anti-vitronectin. Background: An ELISA detects its analyte on a solid surface through an enzyme-linked reagent.
The target in experiment [2] is Msf 1-203 K60A (Neisseria meningitidis strain H44/76). The experiment in a line: SDS-PAGE of unheated samples with Western blot; purified recombinant Msf proteins not heated before SDS-PAGE; detected with anti-Msf polyclonal antibody; bands near the trimeric molecular weight. On the technique in general: A western blot detects proteins with antibodies after separation by electrophoresis.

Experiment [3] has as its target Msf 1-203 KIK66-68AIA (Neisseria meningitidis strain H44/76). The description is as above.
Experiment [4] concerns the target Msf 1-203 KK79-80AA (Neisseria meningitidis strain H44/76). The experiment is described as above.
Experiment [5] addresses Human vitronectin in its unfolded, activated form (human). As to the kind of experiment: ELISA; aVn coated at 74 nM; Msf constructs overlaid at 3 μM; bound Msf detected with rabbit anti-Msf polyclonal antiserum.
Experiment [6] deals with Recombinant Msf 1-422 construct lacking amino acids 4-82 (Neisseria meningitidis strain H44/76). As to the kind of experiment: SDS-PAGE of unheated samples with Western blot; purified recombinant Msf proteins not heated before SDS-PAGE; detected with anti-Msf polyclonal antibody; bands near the trimeric molecular weight.
In experiment [7] the target is Recombinant Msf fragment Msf 1-86 (strain H44/76) (Neisseria meningitidis strain H44/76). As to the kind of experiment: SEC; HiLoad 16/60 Superdex 200 in 50 mM Tris pH 8, 200 mM NaCl; mass from peak elution volume against protein standards.
Experiment [8] deals with Recombinant Msf fragment Msf 1-203 (strain H44/76) (Neisseria meningitidis strain H44/76). The experiment is described as above.
The target in experiment [9] is Recombinant Msf fragment Msf 1-422 (strain H44/76) (Neisseria meningitidis strain H44/76). The experiment is described as above.
Experiment [10] deals with Recombinant Msf fragment Msf 197-422 (strain H44/76) (Neisseria meningitidis strain H44/76). As to the kind of experiment: SDS-PAGE of unheated samples with Western blot; purified recombinant Msf proteins not heated before SDS-PAGE; detected with anti-Msf polyclonal antibody; bands near the trimeric molecular weight.

As to “Human vitronectin in its unfolded, activated form (natural protein)”, the reduction in Vn binding against Msf 1-203 in [1] was 45%. On to Msf 1-203 K60A (domain or fragment), for which the stoichiometry N in [2] was 3.

In the case of “Msf 1-203 KIK66-68AIA (domain or fragment)”, the stoichiometry N in experiment [3] was 3. “Msf 1-203 KK79-80AA (domain or fragment)”: the stoichiometry N in experiment [4] turned out to be 3. As to “Recombinant Msf 1-422 construct lacking amino acids 4-82 (domain or fragment)”, the fold reduction of binding against Msf 1-422 in experiment [5] came to 4 fold. In addition, in experiment [6], the stoichiometry N amounted to 3. As to “Recombinant Msf fragment Msf 1-86 (strain H44/76) (domain or fragment)”, in [7], the stoichiometry N was found to be 3.

On to “Recombinant Msf fragment Msf 1-203 (strain H44/76) (domain or fragment)”, for which the stoichiometry N in experiment [8] is 3. “Recombinant Msf fragment Msf 1-422 (strain H44/76) (domain or fragment)”: the stoichiometry N in experiment [9] was 3. As to “Recombinant Msf fragment Msf 197-422 (strain H44/76) (domain or fragment)”, in experiment [5], the fold lower binding than Msf 1-422 worked out at 6 fold. Besides, the stoichiometry N in experiment [10] was 3.
